Data: patent US20190241648A1 (STATEN BIOTECHNOLOGY B V, published 2019)
Each block holds one binder with its values, some of them ahead of it. Ends that are not written are not given here.

What was measured:
Assay in all cases: peptide microarray
ApoC3 peptide L67E = target: T1, ApoC3 peptide L67E (human, thioether (positions not given here); not fully specified (bridges); also: thioether between a C-terminal Cys side chain and a modified N-terminus, the Cys is not in the chain)
T1 peptide: DKFSEFWDEDPEV

ApoC3 peptide S62F = target: T2, ApoC3 peptide S62F (human, not fully specified; cyclic (thioether))
T2 peptide: DKFFEFWDLDPEV

ApoC3 peptide E63Y = target: T3, ApoC3 peptide E63Y (human, cyclic (thioether))
T3 peptide: DKFSYFWDLDPEV

ApoC3 peptide L67A = target: T4, ApoC3 peptide L67A (human, not fully specified; cyclic (thioether))
T4 peptide: DKFSEFWDADPEV

ApoC3 peptide E63C = target: T5, ApoC3 peptide E63C (human, not fully specified; cyclic (thioether))
T5 peptide: DKFSCFWDLDPEV

ApoC3 peptide … F64A = target: T6, ApoC3 peptide … F64A (human, not fully specified (bridges); also: cyclic constrained)
T6 peptide: DKFSEAWDLDPEV
Method in brief: (§1)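 ApoC3 peptide microarrays incubated with antibody samples and then stained with goat anti-human IgG (Fc) DyLight680 plus anti-HA DyLight800 control antibody. Scanned at intensity 7/7 (red/green); a secondary-only prestain checked for background, and framing HA peptides served as quality control.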

ApoC3 peptide … E70A = ApoC3 peptide … E70A (human, cyclic constrained)
Method in brief: as §1

ApoC3 peptide … D59E = target: T7, ApoC3 peptide … D59E (human, cyclic constrained)
T7 peptide: EKFSEFWDLDPEV
Method in brief: as §1

ApoC3 peptide … D66E = target: T8, ApoC3 peptide … D66E (human, not fully specified (bridges); also: cyclic constrained)
T8 peptide: DKFSEFWELDPEV
Method in brief: as §1

ApoC3 peptide … K60F = target: T9, ApoC3 peptide … K60F (human, not fully specified (bridges); also: cyclic constrained)
T9 peptide: DFFSEFWDLDPEV
Method in brief: as §1

ApoC3 peptide … W65F = ApoC3 peptide … W65F (human, cyclic constrained)
Method in brief: as §1

ApoC3 peptide … D68F = target: T10, ApoC3 peptide … D68F (human, cyclic constrained)
T10 peptide: DKFSEFWDLFPEV
Method in brief: as §1

ApoC3 peptide … E70F = ApoC3 peptide … E70F (human, cyclic constrained)
Method in brief: as §1

ApoC3 peptide … V71F = ApoC3 peptide … V71F (human, cyclic constrained)
Method in brief: as §1

ApoC3 peptide … D59G = target: T11, ApoC3 peptide … D59G (human, cyclic constrained)
T11 peptide: GKFSEFWDLDPEV
Method in brief: as §1

ApoC3 peptide … E63H = ApoC3 peptide … E63H (human, cyclic constrained)
Method in brief: as §1

ApoC3 peptide … V71H = ApoC3 peptide … V71H (human, cyclic constrained)
Method in brief: as §1

ApoC3 peptide … K60I = target: T12, ApoC3 peptide … K60I (human, not fully specified (bridges); also: cyclic constrained)
T12 peptide: DIFSEFWDLDPEV
Method in brief: as §1

ApoC3 peptide … W65K = target: T13, ApoC3 peptide … W65K (human, not fully specified (bridges); also: cyclic constrained, ring type and places not given here)
T13 peptide: DKFSEFKDLDPEV
Method in brief: as §1

ApoC3 peptide … D68L = target: T14, ApoC3 peptide … D68L (human, cyclic constrained)
T14 peptide: DKFSEFWDLLPEV
Method in brief: as §1

ApoC3 peptide … E70L = target: T15, ApoC3 peptide … E70L (human, not fully specified (bridges); also: cyclic constrained)
T15 peptide: DKFSEFWDLDPLV
Method in brief: as §1

ApoC3 peptide … F61P = target: T16, ApoC3 peptide … F61P (human, not fully specified (bridges); also: cyclic constrained)
T16 peptide: DKPSEFWDLDPEV
Method in brief: as §1

ApoC3 peptide … S62P = ApoC3 peptide … S62P (human, cyclic constrained)
Method in brief: as §1

ApoC3 peptide … D59R = target: T17, ApoC3 peptide … D59R (human, cyclic constrained)
T17 peptide: RKFSEFWDLDPEV
Method in brief: as §1

ApoC3 peptide … F64R = target: T18, ApoC3 peptide … F64R (human, not fully specified (bridges); also: cyclic constrained)
T18 peptide: DKFSERWDLDPEV
Method in brief: as §1

ApoC3 peptide … F61S = target: T19, ApoC3 peptide … F61S (human, not fully specified (bridges); also: cyclic constrained)
T19 peptide: DKSSEFWDLDPEV
Method in brief: as §1

ApoC3 peptide … E63S = ApoC3 peptide … E63S (human, cyclic constrained)
Method in brief: as §1

ApoC3 peptide … D68V = ApoC3 peptide … D68V (human, cyclic constrained)
Method in brief: as §1

ApoC3 peptide … K60Y = target: T20, ApoC3 peptide … K60Y (human, not fully specified (bridges); also: cyclic constrained)
T20 peptide: DYFSEFWDLDPEV
Method in brief: as §1

ApoC3 peptide … F61Y = target: T21, ApoC3 peptide … F61Y (human, not fully specified (bridges); also: cyclic constrained)
T21 peptide: DKYSEFWDLDPEV
Method in brief: as §1

ApoC3 peptide … S62Y = ApoC3 peptide … S62Y (human, cyclic constrained)
Method in brief: as §1

ApoC3 peptide … D66Y = target: T22, ApoC3 peptide … D66Y (human, not fully specified (bridges); also: cyclic constrained)
T22 peptide: DKFSEFWYLDPEV
Method in brief: as §1

ApoC3 peptide … D68Y = ApoC3 peptide … D68Y (human, cyclic constrained)
Method in brief: as §1

[1] = target: T23, ApoC3 peptide … D45T (human)
T23 sequence (peptide, cyclic constrained): ARGWVTTGFSSLK

[2] = target: T24, ApoC3 peptide … G41P (human)
T24 sequence (peptide, cyclic constrained): ARPWVTDGFSSLK

[3] = target: T25, ApoC3 peptide … G41T (human)
T25 sequence (peptide, cyclic constrained): ARTWVTDGFSSLK

[4] = target: T26, ApoC3 peptide … G41V (human)
T26 sequence (peptide, cyclic constrained): ARVWVTDGFSSLK

[5] = target: T27, ApoC3 peptide … V43Q (human)
T27 sequence (peptide, cyclic constrained): ARGWQTDGFSSLK

[6] = target: T28, ApoC3 peptide … V43T (human)
T28 sequence (peptide, cyclic constrained): ARGWTTDGFSSLK

[7] = target: T29, ApoC3 peptide … V43W (human)
T29 sequence (peptide, cyclic constrained): ARGWWTDGFSSLK

- % of binding to wild-type peptide (ApoC3 peptide L67E): 8.52%
- % of binding to wild-type peptide (ApoC3 peptide S62F): 9.54%
- % of binding to wild-type peptide (ApoC3 peptide E63Y): 8.92%
- % of binding to wild-type peptide (ApoC3 peptide L67A): 9.07%
- % of binding to wild-type peptide (ApoC3 peptide E63C): 7.93%
- % of binding to wild-type peptide (ApoC3 peptide … F64A): 166%
- % of binding to wild-type peptide (ApoC3 peptide … E70A): 0.97%
- % of binding to wild-type peptide (ApoC3 peptide … D59E): 170%
- % of binding to wild-type peptide (ApoC3 peptide … D66E): 18.9%
- % of binding to wild-type peptide (ApoC3 peptide … K60F): 83.7%
- % of binding to wild-type peptide (ApoC3 peptide … W65F): 55.3%
- % of binding to wild-type peptide (ApoC3 peptide … D68F): 0%
- % of binding to wild-type peptide (ApoC3 peptide … E70F): 9.36%
- % of binding to wild-type peptide (ApoC3 peptide … V71F): 85.4%
- % of binding to wild-type peptide (ApoC3 peptide … D59G): 87.5%
- % of binding to wild-type peptide (ApoC3 peptide … E63H): 12.3%
- % of binding to wild-type peptide (ApoC3 peptide … V71H): 75.9%
- % of binding to wild-type peptide (ApoC3 peptide … K60I): 116%
- % of binding to wild-type peptide (ApoC3 peptide … W65K): 0%
- % of binding to wild-type peptide (ApoC3 peptide … D68L): 0%
- % of binding to wild-type peptide (ApoC3 peptide … E70L): 1.22%
- % of binding to wild-type peptide (ApoC3 peptide … F61P): 79%
- % of binding to wild-type peptide (ApoC3 peptide … S62P): 27.1%
- % of binding to wild-type peptide (ApoC3 peptide … D59R): 70.2%
- % of binding to wild-type peptide (ApoC3 peptide … F64R): 79.1%
- % of binding to wild-type peptide (ApoC3 peptide … F61S): 39.2%
- % of binding to wild-type peptide (ApoC3 peptide … E63S): 35.2%
- % of binding to wild-type peptide (ApoC3 peptide … D68V): 0%
- % of binding to wild-type peptide (ApoC3 peptide … K60Y): 83.9%
- % of binding to wild-type peptide (ApoC3 peptide … F61Y): 112%
- % of binding to wild-type peptide (ApoC3 peptide … S62Y): 16.3%
- % of binding to wild-type peptide (ApoC3 peptide … D66Y): 0%
- % of binding to wild-type peptide (ApoC3 peptide … D68Y): 0%
B1: anti-ApoC3 antibody 6A6 (antibody, V domains shown)
VH: EVQLVESGGGLVQPGGSLRLSCAASGFTFSSYAGRWVRQVPGKGLEWVSSINAGGGSTSYADSVKGRFTISRDNAKNTLYLQMNSLKPEDTAKYYCTQNSYRYWGQGTRVAVSS
VL: DVVLTQTPGSLSVVPGESASISCKASQSLIHTDGKTYLYWLLQKPGQRPQLLIYQVSSHESGVPDRFTGSGSGTDFTLKISGVKAEDAGVYYCAQATYNPRTFGQGTKLEIK
notes: it was detected with goat anti-human IgG (Fc); also called mAb 6A6; llama antibody 6A6

- % of binding to wild-type peptide [1]: 8.67%
- % of binding to wild-type peptide [2]: 8.7%
- % of binding to wild-type peptide [3]: 9.44%
- % of binding to wild-type peptide [4]: 8.76%
- % of binding to wild-type peptide [5]: 7.49%
- % of binding to wild-type peptide [6]: 9.94%
- % of binding to wild-type peptide [7]: 8.98%
B2: anti-ApoC3 antibody 14C7 (antibody, V domains shown)
VH: QVQVQESGPGLVKPSQTLSLTCTVSGGSITTNSYYWSWIRQPPGKGLEWMGAIDYSGDTYYSPSLKSRTSISRDTSKNQFTLQLTSVTPEDTAVYYCVSRIPTGEYWGQGTQVTVSS
VL: QTVVTQEPSLSVSPGGTVTLTCGLNSGSVTSSNYPDWYQQTPGQAPRLLIYNTNSRHSGVPSRFSGSISGNKAALTITGAQPEDEADYYCALYMGSDSVVFGGGTHLTVL
notes: it was detected with goat anti-human IgG (Fc); also called mAb 14C7; llama antibody 14C7
